Drawing on publication PMC4931022, “Arginine demethylation is catalysed by a subset of JmjC histone lysine demethylases” (Nature Communications, 2016), this text covers apparent KM, formaldehyde dehydrogenase-coupled demethylation assay for ten substances.

One assay concerns the target T1, KDM5C(1-765) (human) (UniProt P41229).
T1 sequence: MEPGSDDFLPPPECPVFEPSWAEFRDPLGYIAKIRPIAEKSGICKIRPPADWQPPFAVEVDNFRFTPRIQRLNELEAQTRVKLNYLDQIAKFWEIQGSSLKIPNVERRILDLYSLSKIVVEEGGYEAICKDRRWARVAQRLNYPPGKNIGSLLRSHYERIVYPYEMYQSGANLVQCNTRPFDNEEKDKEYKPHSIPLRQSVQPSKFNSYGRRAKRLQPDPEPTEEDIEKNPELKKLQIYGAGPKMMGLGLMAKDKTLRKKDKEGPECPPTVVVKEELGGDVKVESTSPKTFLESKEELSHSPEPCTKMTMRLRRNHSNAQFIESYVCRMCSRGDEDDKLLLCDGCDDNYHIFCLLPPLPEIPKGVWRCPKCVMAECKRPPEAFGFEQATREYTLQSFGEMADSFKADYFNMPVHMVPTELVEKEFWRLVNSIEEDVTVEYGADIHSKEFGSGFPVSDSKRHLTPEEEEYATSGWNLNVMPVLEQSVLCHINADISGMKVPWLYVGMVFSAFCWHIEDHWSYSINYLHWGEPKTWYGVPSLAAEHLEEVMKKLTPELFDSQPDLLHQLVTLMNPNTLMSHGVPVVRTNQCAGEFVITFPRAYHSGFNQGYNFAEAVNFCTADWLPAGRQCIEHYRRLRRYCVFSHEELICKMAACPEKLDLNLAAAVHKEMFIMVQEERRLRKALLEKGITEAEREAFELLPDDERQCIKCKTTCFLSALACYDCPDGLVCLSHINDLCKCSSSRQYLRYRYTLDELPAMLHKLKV

The target of a further assay is T2, KDM4E(1-337) (human) (UniProt B2RXH2).
T2 sequence: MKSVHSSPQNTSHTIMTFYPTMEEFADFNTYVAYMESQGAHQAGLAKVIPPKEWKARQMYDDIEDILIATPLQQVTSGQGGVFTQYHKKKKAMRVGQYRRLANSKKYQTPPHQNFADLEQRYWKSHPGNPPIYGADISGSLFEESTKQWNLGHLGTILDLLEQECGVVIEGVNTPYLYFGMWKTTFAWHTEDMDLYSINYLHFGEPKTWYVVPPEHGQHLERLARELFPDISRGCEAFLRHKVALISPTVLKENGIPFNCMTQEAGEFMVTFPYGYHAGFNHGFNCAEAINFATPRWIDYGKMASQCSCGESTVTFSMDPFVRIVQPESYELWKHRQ

A further assay addresses T3, KDM3A(515-1,317) (human) (UniProt Q9Y4C1).
T3 sequence: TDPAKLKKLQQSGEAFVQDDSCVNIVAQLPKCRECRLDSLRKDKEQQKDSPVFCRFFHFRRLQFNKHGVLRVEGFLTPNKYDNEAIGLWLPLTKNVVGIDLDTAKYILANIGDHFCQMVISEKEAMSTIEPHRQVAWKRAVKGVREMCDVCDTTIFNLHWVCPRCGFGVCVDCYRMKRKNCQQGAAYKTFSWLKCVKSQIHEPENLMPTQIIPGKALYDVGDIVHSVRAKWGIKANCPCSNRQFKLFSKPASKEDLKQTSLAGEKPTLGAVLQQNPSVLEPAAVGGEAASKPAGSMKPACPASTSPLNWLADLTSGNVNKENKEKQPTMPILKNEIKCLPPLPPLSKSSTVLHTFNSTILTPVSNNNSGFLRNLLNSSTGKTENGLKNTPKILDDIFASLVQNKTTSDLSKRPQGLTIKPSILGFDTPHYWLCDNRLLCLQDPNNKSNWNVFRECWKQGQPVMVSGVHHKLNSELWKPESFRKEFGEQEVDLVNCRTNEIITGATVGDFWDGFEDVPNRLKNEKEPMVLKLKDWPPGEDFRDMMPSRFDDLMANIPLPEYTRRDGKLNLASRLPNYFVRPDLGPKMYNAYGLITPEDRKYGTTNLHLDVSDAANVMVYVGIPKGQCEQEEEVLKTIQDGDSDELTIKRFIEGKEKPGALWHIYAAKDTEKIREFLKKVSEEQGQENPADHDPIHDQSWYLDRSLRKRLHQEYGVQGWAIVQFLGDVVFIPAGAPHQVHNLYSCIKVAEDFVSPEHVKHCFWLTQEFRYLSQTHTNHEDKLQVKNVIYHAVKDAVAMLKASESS

For assay [1], the target named is KDM6B(1,141-1,590) (human) (UniProt O15054).
Sequence of KDM6B(1,141-1,590) (human) (O15054 1141-1590): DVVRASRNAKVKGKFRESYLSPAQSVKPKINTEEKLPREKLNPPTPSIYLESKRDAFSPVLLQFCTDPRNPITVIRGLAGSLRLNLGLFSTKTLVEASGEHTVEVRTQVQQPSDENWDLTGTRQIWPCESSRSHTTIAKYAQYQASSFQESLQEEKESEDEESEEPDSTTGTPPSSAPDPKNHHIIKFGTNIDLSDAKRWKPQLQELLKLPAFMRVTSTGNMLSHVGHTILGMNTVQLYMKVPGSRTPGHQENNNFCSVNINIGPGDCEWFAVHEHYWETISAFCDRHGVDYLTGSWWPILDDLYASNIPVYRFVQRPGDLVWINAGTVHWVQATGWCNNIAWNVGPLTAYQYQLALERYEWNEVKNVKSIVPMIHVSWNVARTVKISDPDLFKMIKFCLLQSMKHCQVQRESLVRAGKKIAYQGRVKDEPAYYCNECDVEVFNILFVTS

With “H3(1-15)K4Rme2a (from UniProt P68431 2-16) (peptide)”, in the assay with KDM5C(1-765) (human), the apparent KM, formaldehyde dehydrogenase-coupled demethylation assay came out at 29 µM.

Take “H3(1-15)K4Rme2s (from UniProt P68431 2-16) (peptide)”: in the assay with KDM5C(1-765) (human), the apparent KM, formaldehyde dehydrogenase-coupled demethylation assay stood at 21.1 µM.

As for “H3(1-15)K4me3 (from UniProt P68431 2-16) (peptide)”, the apparent KM, formaldehyde dehydrogenase-coupled demethylation assay with KDM5C(1-765) (human) came to 7.6 µM.

Turning to “H3(1-15)K9Rme2a (from UniProt P68431 2-16) (peptide)”, the apparent KM, formaldehyde dehydrogenase-coupled demethylation assay with KDM4E(1-337) (human) was 66 µM; with KDM3A(515-1,317) (human), 11.6 µM.

On to “H3(1-15)K9Rme2s (from UniProt P68431 2-16) (peptide)”, for which the results for the apparent KM, formaldehyde dehydrogenase-coupled demethylation assay with KDM4E(1-337) (human) and with KDM3A(515-1,317) (human) were 101 µM and 23.7 µM, respectively.

“H3(1-15)K9Rme (from UniProt P68431 2-16) (peptide)”: the results for the apparent KM, formaldehyde dehydrogenase-coupled demethylation assay in the assay with KDM4E(1-337) (human) and in the assay with KDM3A(515-1,317) (human) were 169 µM and 12.1 µM, respectively.

As to “H3(1-15)K9me2 (from UniProt P68431 2-16) (peptide)”, in the assay with KDM3A(515-1,317) (human), the apparent KM, formaldehyde dehydrogenase-coupled demethylation assay stood at 44.5 µM.

Turning to “H3(1-15)K9me3 (from UniProt P68431 2-16) (peptide)”, the apparent KM, formaldehyde dehydrogenase-coupled demethylation assay in the assay with KDM4E(1-337) (human) was determined as 17.8 µM.

For the substance “H3(14-34)K27Rme2a (from UniProt P68431 15-35) (peptide)”, the apparent KM, formaldehyde dehydrogenase-coupled demethylation assay in assay [1] was found to be 676 µM.

Regarding “H3(14-34)K27me3 (from UniProt P68431 15-35) (peptide)”, the apparent KM, formaldehyde dehydrogenase-coupled demethylation assay in assay [1] amounted to 6.7 µM.
